The source of these data is US20250042994A1 (HAINAN SIMCERE ZAIMING PHARMACEUTICAL, published 2025).

In test [1] the target is T1, human CD19 exon1-3-his protein (human, UniProt P15391 20-186, limits assumed).
T1 construct: made in HEK293E cells; also called membrane-distal end; not shown: His tag
T1 sequence (looked up): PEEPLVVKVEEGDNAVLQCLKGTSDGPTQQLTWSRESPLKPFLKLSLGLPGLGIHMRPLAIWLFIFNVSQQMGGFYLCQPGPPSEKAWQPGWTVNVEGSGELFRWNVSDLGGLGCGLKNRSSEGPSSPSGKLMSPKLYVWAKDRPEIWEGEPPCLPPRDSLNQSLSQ
The experiment in a line: ELISA, coated at 2 ug/mL. A general note: In an ELISA, binding on a coated surface is turned into a signal by an enzyme label.

The next test concerns the target T2, murine CD19 protein (murine, UniProt P25918 17-287, limits assumed).
T2 construct: bought protein; also called commercial murine CD19
T2 sequence (looked up): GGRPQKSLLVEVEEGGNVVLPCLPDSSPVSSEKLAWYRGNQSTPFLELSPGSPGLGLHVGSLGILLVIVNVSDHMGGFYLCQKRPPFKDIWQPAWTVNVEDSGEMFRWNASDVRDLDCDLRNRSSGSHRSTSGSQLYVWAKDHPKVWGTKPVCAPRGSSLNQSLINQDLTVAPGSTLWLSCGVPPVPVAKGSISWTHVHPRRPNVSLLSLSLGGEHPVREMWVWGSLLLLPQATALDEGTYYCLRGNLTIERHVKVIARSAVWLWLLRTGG
The test can be described thus: ELISA. As to the method:
Human CD19-his protein (purchased from ACROBiosystems, catalog number: CD9-H52H2) was diluted with PBS to a final concentration of 4 μg/mL, and then added to a 96-well ELISA plate at 100 μl/well. The plate was sealed with a plastic film and incubated overnight at 4° C., the plate was washed 2 times with PBS the next day, and then a blocking solution [PBS+2% (w/w) BSA] was added for blocking at room temperature for 2 h. The blocking solution was poured off, and 100 nM gradiently diluted CD19 chimeric antibody or control antibody was added at 50 μl/well. After incubation at 37° C. for 2 h, the plate was washed 3 times with PBS. […] TMB substrate was added at 50 μl/well, and incubated at room temperature for 10 min, and then a stop solution (1.0 N HCl) was added at 50 μl/well. The OD450 nm values were read by an ELISA microplate reader (Multimode Plate Reader, EnSight, purchased from Perkin Elmer).
In order to detect the species cross-binding activity of the chimeric antibodies, an ELISA plate was coated with commercial murine CD19 (ACROBiosystems, catalog number: 50510-M08H) and monkey CD19 (ACROBiosystems, catalog number: 90051-C08H), respectively, and the ELISA detection was performed according to the method in example 5.1. […]

B1: F3.121.4-L1H2 (antibody, mouse IgG1, kappa, V domains shown)
VH: EVQLVQSGAEVKKPGASVKVSCKASGYTFTNYWMHWVRQAPGQGLEWMGEIDPSDNYANYNQEFQGRVTITVDKSASTAYMELSSLRSEDTAVYYCARHDGYFGALDYWGQGTTVTVSS
VL: EIVLTQSPATLSLSPGERATLSCSASSSISSNYLHWYQQKPGQAPRFLIYRTSNLASGIPARFSGSGSGTDFTLTISSLEPEDFAVYYCQQASSIPRMFTFGQGTKLEIKR
notes: murine IgG1 constant regions; also called humanized antibody of F3.121.4
Regarding B1, the binding result (in test [1]; with murine CD19 protein) was “no binding” throughout.

B2: F3.121.4-L2H2 (antibody, mouse IgG1, kappa, V domains shown)
VH: EVQLVQSGAEVKKPGASVKVSCKASGYTFTNYWMHWVRQAPGQGLEWMGEIDPSDNYANYNQEFQGRVTITVDKSASTAYMELSSLRSEDTAVYYCARHDGYFGALDYWGQGTTVTVSS
VL: EIVLTQSPDFQSVTPKEKVTITCSASSSISSNYLHWYQQKPDQSPKLLIKRTSNLASGVPSRFSGSGSGTDFTLTINSLEAEDAATYYCQQASSIPRMFTFGQGTKLEIKR
notes: as for B1
Take B2: the binding result (in test [1]; with murine CD19 protein) was “no binding” each time.

B3: F3.121.4-L2H3 (antibody, mouse IgG1, kappa)
heavy: EVQLVQSGAEVKKPGASVKVSCKASGYTFTNYWMHWVRQRPGQGLEWMGEIDPSDNYANYNQEFQGRVTITVDKSASTAYMELSSLRSEDTAVYYCARHDGYFGALDYWGQGTTVTVSSAKTTPPSVYPLAPGSAAQTNSMVTLGCLVKGYFPEPVTVTWNSGSLSSGVHTFPAVLQSDLYTLSSSVTVPSSTWPSETVTCNVAHPASSTKVDKKIVPRDCGCKPCICTVPEVSSVFIFPPKPKDVLTITLTPKVTCVVVDISKDDPEVQFSWFVDDVEVHTAQTQPREEQFNSTFRSVSELPIMHQDWLNGKEFKCRVNSAAFPAPIEKTISKTKGRPKAPQVYTIPPPKEQMAKDKVSLTCMITDFFPEDITVEWQWNGQPAENYKNTQPIMDTDGSYFVYSKLNVQKSNWEAGNTFTCSVLHEGLHNHHTEKSLSHSPGK
light: EIVLTQSPDFQSVTPKEKVTITCSASSSISSNYLHWYQQKPDQSPKLLIKRTSNLASGVPSRFSGSGSGTDFTLTINSLEAEDAATYYCQQASSIPRMFTFGQGTKLEIKRADAAPTVSIFPPSSEQLTSGGASVVCFLNNFYPKDINVKWKIDGSERQNGVLNSWTDQDSKDSTYSMSSTLTLTKDEYERHNSYTCEATHKTSTSPIVKSFNRNEC
notes: as for B1
Turning to B3, the binding result (in test [1]; with murine CD19 protein) was “no binding” throughout.

B4: F3.121.4-L3H1 (antibody, mouse IgG1, kappa, V domains shown)
VH: EVQLVQSGAEVKKPGASVKVSCKASGYTFTNYWMHWVRQAPGQRLEWMGEIDPSDNYANYNQEFQGRVTITVDKSASTAYMELSSLRSEDTAVYYCARHDGYFGALDYWGQGTTVTVSS
VL: EIVLTQSPDFQSVTPKEKVTITCSASSSISSNYLHWYQQKPDQSPKFLIYRTSNLASGVPSRFSGSGSGTDFTLTINSLEAEDAATYYCQQASSIPRMFTFGQGTKLEIKR
notes: as for B1
For the molecule B4, the binding result (in test [1]; in the test with murine CD19 protein) was “no binding” throughout.

B5: F3.121.4-L3H2 (antibody, mouse IgG1, kappa, V domains shown)
VH: EVQLVQSGAEVKKPGASVKVSCKASGYTFTNYWMHWVRQAPGQGLEWMGEIDPSDNYANYNQEFQGRVTITVDKSASTAYMELSSLRSEDTAVYYCARHDGYFGALDYWGQGTTVTVSS
VL: EIVLTQSPDFQSVTPKEKVTITCSASSSISSNYLHWYQQKPDQSPKFLIYRTSNLASGVPSRFSGSGSGTDFTLTINSLEAEDAATYYCQQASSIPRMFTFGQGTKLEIKR
notes: as for B1
For the molecule B5, the binding result (in test [1]; with murine CD19 protein) was “no binding” in each case.

B6: F3.121.4-L2H1 (antibody, mouse IgG1, kappa, V domains shown)
VH: EVQLVQSGAEVKKPGASVKVSCKASGYTFTNYWMHWVRQAPGQRLEWMGEIDPSDNYANYNQEFQGRVTITVDKSASTAYMELSSLRSEDTAVYYCARHDGYFGALDYWGQGTTVTVSS
VL: EIVLTQSPDFQSVTPKEKVTITCSASSSISSNYLHWYQQKPDQSPKLLIKRTSNLASGVPSRFSGSGSGTDFTLTINSLEAEDAATYYCQQASSIPRMFTFGQGTKLEIKR
notes: as for B1
On to B6, for which the binding result (in test [1]; with murine CD19 protein) was “no binding” throughout.

B7: F3.121.4-L1H4 (antibody, mouse IgG1, kappa)
heavy: EVQLQQSGAEVKKPGASVKVSCKASGYTFTNYWMHWVRQRPGQGLEWMGEIDPSDNYANYNQEFQGRVTITVDKSASTAYMELSSLRSEDTAVYYCARHDGYFGALDYWGQGTTVTVSSAKTTPPSVYPLAPGSAAQTNSMVTLGCLVKGYFPEPVTVTWNSGSLSSGVHTFPAVLQSDLYTLSSSVTVPSSTWPSETVTCNVAHPASSTKVDKKIVPRDCGCKPCICTVPEVSSVFIFPPKPKDVLTITLTPKVTCVVVDISKDDPEVQFSWFVDDVEVHTAQTQPREEQFNSTFRSVSELPIMHQDWLNGKEFKCRVNSAAFPAPIEKTISKTKGRPKAPQVYTIPPPKEQMAKDKVSLTCMITDFFPEDITVEWQWNGQPAENYKNTQPIMDTDGSYFVYSKLNVQKSNWEAGNTFTCSVLHEGLHNHHTEKSLSHSPGK
light: EIVLTQSPATLSLSPGERATLSCSASSSISSNYLHWYQQKPGQAPRFLIYRTSNLASGIPARFSGSGSGTDFTLTISSLEPEDFAVYYCQQASSIPRMFTFGQGTKLEIKRADAAPTVSIFPPSSEQLTSGGASVVCFLNNFYPKDINVKWKIDGSERQNGVLNSWTDQDSKDSTYSMSSTLTLTKDEYERHNSYTCEATHKTSTSPIVKSFNRNEC
notes: as for B1
For B7, the binding result (in test [1]; with murine CD19 protein) was “no binding” in each case.

B8: F3.121.4-L1H3 (antibody, mouse IgG1, kappa)
heavy: EVQLVQSGAEVKKPGASVKVSCKASGYTFTNYWMHWVRQRPGQGLEWMGEIDPSDNYANYNQEFQGRVTITVDKSASTAYMELSSLRSEDTAVYYCARHDGYFGALDYWGQGTTVTVSSAKTTPPSVYPLAPGSAAQTNSMVTLGCLVKGYFPEPVTVTWNSGSLSSGVHTFPAVLQSDLYTLSSSVTVPSSTWPSETVTCNVAHPASSTKVDKKIVPRDCGCKPCICTVPEVSSVFIFPPKPKDVLTITLTPKVTCVVVDISKDDPEVQFSWFVDDVEVHTAQTQPREEQFNSTFRSVSELPIMHQDWLNGKEFKCRVNSAAFPAPIEKTISKTKGRPKAPQVYTIPPPKEQMAKDKVSLTCMITDFFPEDITVEWQWNGQPAENYKNTQPIMDTDGSYFVYSKLNVQKSNWEAGNTFTCSVLHEGLHNHHTEKSLSHSPGK
light: EIVLTQSPATLSLSPGERATLSCSASSSISSNYLHWYQQKPGQAPRFLIYRTSNLASGIPARFSGSGSGTDFTLTISSLEPEDFAVYYCQQASSIPRMFTFGQGTKLEIKRADAAPTVSIFPPSSEQLTSGGASVVCFLNNFYPKDINVKWKIDGSERQNGVLNSWTDQDSKDSTYSMSSTLTLTKDEYERHNSYTCEATHKTSTSPIVKSFNRNEC
notes: as for B1
As to B8, the binding result (in test [1]; with murine CD19 protein) was “no binding” in each case.

B9: F3.121.4-L2H4 (antibody, mouse IgG1, kappa)
heavy: EVQLQQSGAEVKKPGASVKVSCKASGYTFTNYWMHWVRQRPGQGLEWMGEIDPSDNYANYNQEFQGRVTITVDKSASTAYMELSSLRSEDTAVYYCARHDGYFGALDYWGQGTTVTVSSAKTTPPSVYPLAPGSAAQTNSMVTLGCLVKGYFPEPVTVTWNSGSLSSGVHTFPAVLQSDLYTLSSSVTVPSSTWPSETVTCNVAHPASSTKVDKKIVPRDCGCKPCICTVPEVSSVFIFPPKPKDVLTITLTPKVTCVVVDISKDDPEVQFSWFVDDVEVHTAQTQPREEQFNSTFRSVSELPIMHQDWLNGKEFKCRVNSAAFPAPIEKTISKTKGRPKAPQVYTIPPPKEQMAKDKVSLTCMITDFFPEDITVEWQWNGQPAENYKNTQPIMDTDGSYFVYSKLNVQKSNWEAGNTFTCSVLHEGLHNHHTEKSLSHSPGK
light: EIVLTQSPDFQSVTPKEKVTITCSASSSISSNYLHWYQQKPDQSPKLLIKRTSNLASGVPSRFSGSGSGTDFTLTINSLEAEDAATYYCQQASSIPRMFTFGQGTKLEIKRADAAPTVSIFPPSSEQLTSGGASVVCFLNNFYPKDINVKWKIDGSERQNGVLNSWTDQDSKDSTYSMSSTLTLTKDEYERHNSYTCEATHKTSTSPIVKSFNRNEC
notes: as for B1
As to B9, the binding result (in test [1]; with murine CD19 protein) was “no binding” throughout.

B10: F3.121.4-L1H1 (antibody, mouse IgG1, kappa, V domains shown)
VH: EVQLVQSGAEVKKPGASVKVSCKASGYTFTNYWMHWVRQAPGQRLEWMGEIDPSDNYANYNQEFQGRVTITVDKSASTAYMELSSLRSEDTAVYYCARHDGYFGALDYWGQGTTVTVSS
VL: EIVLTQSPATLSLSPGERATLSCSASSSISSNYLHWYQQKPGQAPRFLIYRTSNLASGIPARFSGSGSGTDFTLTISSLEPEDFAVYYCQQASSIPRMFTFGQGTKLEIKR
notes: as for B1
Regarding B10, the binding result (in test [1]; in the test with murine CD19 protein) was “no binding” each time.
